Assay results reported in publication PMC9943664.
pKd: −log10 of the molar value.

Test system: MBP-DDX3X (human)
Assay: EMSA
Conditions: DDX3X EMSA: 40 mM Tris-Cl pH 8, 50 mM NaCl, 0.5 mM MgCl2, 2 mM DTT, 0.01% NP40, 2 mM AMP-PNP/MgCl2, 37 C 30 min, UV 254 nm 3 min, 6% native PAGE in 0.5x TB + …

| Substance | pKd (native post-transcriptional modifications (not listed)) | pKd (none (unmodified)) |
| --- | --- | --- |
| endogenous tRNA-LysUUU/CUU | 7.08 | – |
| synthetic tRNA-LysUUU | – | 6.37 |
